PMC3250504, “Identification and Characterization of a Mef2 Transcriptional Activator in Schistosome Parasites”

T1: MBP-SmMef2 (Schistosoma mansoni, UniProt G8JE45 1-730)
T1 sequence: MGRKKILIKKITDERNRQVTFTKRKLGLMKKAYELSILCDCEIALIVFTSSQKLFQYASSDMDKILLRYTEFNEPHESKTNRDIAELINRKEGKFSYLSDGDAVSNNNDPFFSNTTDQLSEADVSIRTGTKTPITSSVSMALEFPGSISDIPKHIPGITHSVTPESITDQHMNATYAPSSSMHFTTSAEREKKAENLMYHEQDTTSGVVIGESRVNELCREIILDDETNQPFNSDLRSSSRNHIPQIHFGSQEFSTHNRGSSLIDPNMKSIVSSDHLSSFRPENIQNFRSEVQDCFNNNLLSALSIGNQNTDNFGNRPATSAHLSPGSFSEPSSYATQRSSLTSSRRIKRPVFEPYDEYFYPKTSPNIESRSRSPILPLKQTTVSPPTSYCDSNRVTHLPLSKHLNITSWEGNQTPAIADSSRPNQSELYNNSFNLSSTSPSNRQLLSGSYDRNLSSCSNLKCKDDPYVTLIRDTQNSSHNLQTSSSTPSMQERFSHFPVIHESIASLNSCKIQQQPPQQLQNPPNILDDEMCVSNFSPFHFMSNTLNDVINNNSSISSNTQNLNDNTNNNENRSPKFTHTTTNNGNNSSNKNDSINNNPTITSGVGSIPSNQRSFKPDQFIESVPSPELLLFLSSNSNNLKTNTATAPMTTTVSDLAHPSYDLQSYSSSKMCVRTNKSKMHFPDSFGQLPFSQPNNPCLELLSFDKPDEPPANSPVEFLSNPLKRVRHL


What was measured:
[1] = target: T1, MBP-SmMef2; experiment: EMSA; 5 mM MgCl2, poly(dI-dC); LightShift kit 1x binding buffer, 2.5% glycerol, 5 mM MgCl2, 50 ng/uL poly(dI-dC), 0.05% NP-40, 180 fmol hot dsDNA, 1.4 ug protein, 20 min room temperature; 5%; conditions: protein: recombinant; tags: N-terminal MBP (pMAL-c5x); chain copies: 2; label: 5' biotin on forward strand (hot); blunt
[2] = target: T1, MBP-SmMef2; experiment: competition; 200x cold vs labeled AT12 or AT13; LightShift kit 1x binding buffer, 2.5% glycerol, 5 mM MgCl2, 50 ng/uL poly(dI-dC), 0.05% NP-40, 180 fmol hot dsDNA, 1.4 ug protein, 20 min room temperature; 5%; conditions: protein: recombinant; tags: N-terminal MBP (pMAL-c5x); chain copies: 2; blunt

Binder | binding result [1] | binding result [2]
AT13 (M. polymorpha Mef2 site) (dsDNA) DNA 1: GCTGAAGGATCTATATATAGGCGGATCGGC DNA 2: GCCGATCCGCCTATATATAGATCCTTCAGC | binds | –
AT11 (Drosophila Actin57B Mef2 site) (dsDNA) DNA 1: GCTGAAGGATCTATTTTTAGGCGGATCGGC DNA 2: GCCGATCCGCCTAAAAATAGATCCTTCAGC | binds | –
AT14 (Ndt80 MSE negative control) (dsDNA) DNA 1: GCTGAAGGATGTCACAAAATGCGGATCGGC DNA 2: GCCGATCCGCATTTTGTGACATCCTTCAGC | – | no binding
AT12 (common Mef2 consensus) (dsDNA) DNA 1: GCTGAAGGATCTAAAAATAGGCGGATCGGC DNA 2: GCCGATCCGCCTATTTTTAGATCCTTCAGC | binds | –
